According to patent US20190352664A1, “COMPOSITIONS AND METHODS FOR CONTROLLING GENE EXPRESSION” (priority 2017, published 2019):

System: Arabidopsis
Experiment: Ribo-seq and RNA-seq global translatome profiling (translational efficiency TE, mORF/uORF ribo-shift) upon elf18 treatment
Type: in vivo
Parameters: key to score (Ribo-shift): Up: ribo-shift up (i.e., increased mORF/uORF ratio); Down: ribo-shift down (i.e., decreased mORF/uORF ratio)
Conditions: elf18 vs Mock; for score (TE change): translational efficiency fold change, listed as shows 5′ UTR of the transcript

Molecule	score (TE change)	score (Ribo-shift) (shift of mORF/uORF ratio, per uORF)
AT2G47210.1: 5′ UTR of transcript; myb-like transcription factor family protein (nucleic acid) DNA: AAACTGCTGACCGATCCCAAAGGTTGAAAGATTCTTTGGCGCTAAAAAATCCCCAGTTCCCAAATCGGCGTCCTCGTTTGAAACCCTAATTCCTGAATCGAAGCAGATCCTGATCGAATCGAAGGTGTTCGAATGATAGCTACCCAGTAAATTCAGAACCCTAATTAACA	TEdown (389 genes displayed decreased TEfc (|z|≥1.5))	
AT3G55020.1: 5′ UTR of transcript; Ypt/Rab-GAP domain of gyp1p superfamily protein (nucleic acid) DNA: GTCACACATGTAATAAACCTTGGTCGACAATCTCGCCCTTTCCATGTGATTTCTCCACTTCCTCTCTCTCTCTACTGCAACTTCCTCCTCCTGCTTCAACTTCATTCGGGTAATGATGAACTAGCGTAGAGATTTGGATCTTCTTCTTCGTCCTCTCACCAACTCTTCACCGGTTAGATCTCTTTTTCACGCTAACGA	TEup (448 had increased TEfc)	
AT3G56010.1: 5′ UTR of transcript (nucleic acid, listed as DNA, chemistry not fully specified, 5′ UTR of transcript) DNA: GTGTTTAGCTTCTTCACTACCACACAGAAACAGAGTTTCCGTCTTTCATCTTCCTCCATATGCGTCGCTCTTAAAAACCTAATTCACA	TEup (448 had increased TEfc)	
AT1G16700.1: 5′ UTR of transcript; Alpha-helical ferredoxin (nucleic acid) DNA: AAATTAAGAGACATCTGATCGAATTTTGTTCCGACGACCGTGAATCACCAGCAAAGGATTCGTGTCAATGTTCTTGTGAGATCGAACTTTCTCTGGGTTCGTGCAGAAGCTTTGCTTTTTTGAGTATCGCGTTTAAGGCACATCGAAGAAGAGAGACCCTAATTTGATATTTTGAGTTCTATCG	TEdown (389 genes displayed decreased TEfc (|z|≥1.5))	
AT2G42950.1: 5′ UTR of transcript; Magnesium transporter CorA-like family protein (nucleic acid) DNA: ACATTCATCTCTCTCTCTCAGTCAAATTGTTGTTTTCTTTCTTCGAATCGGTGCAGAAAATTCAGGGAAGTTCTGGGGAAGGTTGTTGCGTTTGACTCCTTTGGCTTAGTTTTCTTTCGAATTCCGTGCTTCCTGATGATCTTACGTGAAATTGCAGCCTAAAATTTCGAGATTGTTTTTTTTACTCAGAAAACGAGATTTGACTGATATGAATCGAAAATCTGTGATTTAAAGTGAAGC	TEdown (389 genes displayed decreased TEfc (|z|≥1.5))	
AT3G63340.1: 5′ UTR of transcript; Protein phosphatase 2C family protein (nucleic acid) DNA: TCTTCTTCTTCGTTTTCAGGCGGGTGGAGGAGCTCAGAGCCTTCCAGAGGTAACCAACCTTTTATTACCGACAAGATTCTGCCACACAATTATTACATATTTTTGTTCCCATGAAGCAATTGTTCCTTTCAAGCATGTTTACGAGCAAAAGAGTGAAAGGGTAGCTTGATTTTTGTCTACTCTAGCTTCATTTTCTGGCGATCTTTACTTGAGATTTAAACATTTTGCTCTCGGATTGATAATAAAGAAGAATTTGGAATATCAGTAGGTTTGGTTAGGACTCTCGGATTCTGTTGTCGGTTAGATATTTGTTTTGTTTAATCCCTAGATTTAGCAGAGAAATCCCTCAAATCTCACACAATCCATGTAAGGAAGAAG	TEdown (389 genes displayed decreased TEfc (|z|≥1.5))	
AT4G17840.1: 5′ UTR of transcript (nucleic acid) DNA: ATCAAAATCAATGATCAAGGTAACGTAGTCAAGTTCAATTACTCTTTGTCAAATTTAAGTGGTCTCTATTACTAAACTATACACAACCGTTAGATCAAATAATTCTCTACCATCCAACGGTCCAAAGTCTCCACTTCTATTTATTACAATAAAATGAGAAAATAAAAACGCGCGGTCACCGATTCTCTCTCGCTCTCTCTGTTACTAAATGAAGAAGAGAATCTCTCCGGCGAGATCACCGGCGTTATTCCGATAATTTCGCCTGAGAGTTGTCGCATGTTATAA	TEup (448 had increased TEfc)	
AT2G35510.1: 5′ UTR of transcript; similar to RCD one 1 (nucleic acid) DNA: CAAGAGTAGACCGCCGACTTAGATTTTTTCGCCGACGAGAGAATATATATAAATGGCTCGTCTTTTTCCAAACGATTTCTTCTTCTTCGTCGTCGCCGGTTTAGGGTTTCCGTTGCTGTAGCAATTTTCTCTCGCTTCTCTCTCCCCTTTTACAGTTTCTCTTATATTGCTCTTGCCTTGCGTCCAATCTCAAGAGTTCATAAGAGTTGACATTTGTGAACATCGAAGAAATACGGTGACGTTTCTTCTCTGATTACTTTTTGCCAACATGAATACTAATGTATTTATCAACAAGTGCTACAGCCTGTTTTTTTCGAAGCTGTTGGTGAGTTCCCATCCTTAGTACTGCTAGACAGTTCGGTGTGTTAGTTGACTTTATATTCAAGGTTATAGGTTTAGTGTTGTTAGTAGAGAAAA	TEup (448 had increased TEfc)	
AT3G18140.1: 5′ UTR of transcript; Transducin/WD40 repeat-like superfamily protein (nucleic acid) DNA: ATGAGAAAAGCTTGGTAAAAACCCTATTTTTCTTCTTCTCTTCAATTTACAGTTCTCTGCACCTTTTTCTTTCCCCTGTTTTTTGATCCTCAATCACCAAACCCTAGCTTGTTCTTCTGTTGATTATTTCGAAAAGGGGGTTTGTTTGTTTTCTGGGAATCAGCAAAAATCACGAAATGGTTGGTTTAATATTTCAATCGGGATAAAATCGATCGAAA	TEup (448 had increased TEfc)	
AT2G35510.1_1: uORF of AT2G35510.1; peptide SEQ ID NO: 11 (nucleic acid, listed as DNA, chemistry not fully specified) DNA: ATGGCTCGTCTTTTTCCAAACGATTTCTTCTTCTTCGTCGTCGCCGGTTTAGGGTTTCCGTTGCTGTAG		Up
AT4G23740.1: 5′ UTR of transcript; Leucine-rich repeat protein kinase family protein (nucleic acid) DNA: CTTTCACCCACTTTAATATGCCAAAAAATAAGAACAAAATTATATCCGTTGCTTGAAAATCACAAGCTCTTCTTAACTTCACAAGTGCTTCAATGGCGGTTCTTCACATTATCTTCACTGCGTAATTGAAGAAGTTGTTCTCTCTTCCTCTTAATTTCGAGTTGTGTTCTTAAAAAACTCCAGAGCTGATTCGATTCTCGAGAAGAAACTAAGCCGACAATAAAGTTCAGATCTGGAAAAAAGCGAGCTCCAGATTACAAAAAGAAACAGCTCGTTTTTTTCACTTTCAAAAAA	TEup (448 had increased TEfc)	
AT3G15030.1: 5′ UTR of transcript; TCP family transcription factor 4 (nucleic acid) DNA: AGATTTTTTTTTTAAACAAAGAATGGAAAAAAATGAATAAATTTGGGAAACGAGGAAGCTTTGGTTACCCAAAAAAGAAAGAAAGAAAAAATAAAAAAAAATAAAAAGAAAAGCTTTCTCTGGGTTTTTCTTGATTGGTCAATTACACATCTCCCTTTCTCTCTTCTCTCTCTCACCTTCGCTTGCTTTGCTTGCTTCATCTCTTTGGTCTCCTTCTTGCGTTTTCTATTTACTACACAGACCAAACAATAGAGAGAGACTTTAAGCTATAGAAAAAAAGAGAGAGATTCTCTCAAATATGGGTTAGTCCACAATTTTCACTAAACCTCTTCTTCTTAGGATTGTTTTTAGGGTTAGGGTTTTGAGGTGAGGAGAGCAAGTATGCGGGAGTTTCATCCTTTTTGAGTTACTCTGGATTCCTCACCCTCTAACGACGACCACCGTCGCCGCCGCCGCCGCCGTCTCGACGAATATGCTCTACCA	TEdown (389 genes displayed decreased TEfc (|z|≥1.5))	
AT4G11110.1: 5′ UTR of transcript; SPA1-related 2 (nucleic acid) DNA: CTTACTTAAACACAGTCAAATTCATTTTCTGCCTTAGAAAAGATTTTTATCGAAAATCGACGTTTTTGAAAAAACTCAAATTATCGTCGTTTTGTTCTCAGATTTCTTCTGCTCTCTTCTTCTTCTCCTTCTTCTTCGTTCCACCGCCTCTGTTGCTTTATCTTCTTCTTCCTTCCTTCGATTGTTGATTACGTCGGTGGATCTTTGTTCTCCTCTGTGTTGTTTTCATTGCTAGATTTCGTCAATGATTGGCTTCTCACGATTCGATTTTTCCGGCTCCTGTTCTTAATTTCCTCTGAGAGA	TEup (448 had increased TEfc)	
AT3G03070.1: 5′ UTR of transcript; NADH-ubiquinone oxidoreductase-related (nucleic acid, listed as DNA, chemistry not fully specified, 5′ UTR of transcript; NADH-ubiquinone oxidoreductase-related) DNA: AAATAAATGCGTTGTTTGGTACAGCTTCACGAACAATCTCTCTCTCGATAGATTCTTCTTACCTCTGAATTTCTCGTTGTTGGAACA	TEdown (389 genes displayed decreased TEfc (|z|≥1.5))	
AT4G18570.1: 5′ UTR of transcript; Tetratricopeptide repeat (TPR)-like superfamily protein (nucleic acid) DNA: ATTTTTATTACTCTCTCAAGTAGTCTCATCTTCTTCTTAATCCAAAGGCCCAAACTTTGAATCATCACTATCACTCTCTCTCTCTCTCTCTATCTCTCAAGAACTGCACGGACAACGACATGCTTTTAATTTCCATGCAAATCTCTCCTTTCTTCTCAAGTCATTTTTGAAAATCAATCAAAAAACTGAAACTTGGTGGAGCTTTTATCATTCACTCATCA	TEdown (389 genes displayed decreased TEfc (|z|≥1.5))	
